Results from paper PMC4176175, “Requirements for 5′dRP/AP lyase activity in Ku”.

Experiments:
Test in all cases: EMSA; 1 nM Ku, 1 nM DNA, 15 min; EMSA: 1 nM Ku with 1 nM radiolabeled 30 bp DNA, 15 min, no streptavidin/UDG; buffer, salt, pH and temperature not given in the material
Settings in all cases: protein: recombinant;recombinant, tags: C-terminal His6;, copies: 1;1, label: 3' 32P-cordycepin on strand 1, 5' overhang 3 nt (GUG) on strand 1, 5' overhang 1 nt (T) on strand 2, paired by the added 3' cordycepin
[1] = target: T1, yeast Ku70 WT;yeast Ku80 WT (Saccharomyces cerevisiae;Saccharomyces …, UniProt P32807;Q04437 1-602;1-629, |)
T1 sequence 1: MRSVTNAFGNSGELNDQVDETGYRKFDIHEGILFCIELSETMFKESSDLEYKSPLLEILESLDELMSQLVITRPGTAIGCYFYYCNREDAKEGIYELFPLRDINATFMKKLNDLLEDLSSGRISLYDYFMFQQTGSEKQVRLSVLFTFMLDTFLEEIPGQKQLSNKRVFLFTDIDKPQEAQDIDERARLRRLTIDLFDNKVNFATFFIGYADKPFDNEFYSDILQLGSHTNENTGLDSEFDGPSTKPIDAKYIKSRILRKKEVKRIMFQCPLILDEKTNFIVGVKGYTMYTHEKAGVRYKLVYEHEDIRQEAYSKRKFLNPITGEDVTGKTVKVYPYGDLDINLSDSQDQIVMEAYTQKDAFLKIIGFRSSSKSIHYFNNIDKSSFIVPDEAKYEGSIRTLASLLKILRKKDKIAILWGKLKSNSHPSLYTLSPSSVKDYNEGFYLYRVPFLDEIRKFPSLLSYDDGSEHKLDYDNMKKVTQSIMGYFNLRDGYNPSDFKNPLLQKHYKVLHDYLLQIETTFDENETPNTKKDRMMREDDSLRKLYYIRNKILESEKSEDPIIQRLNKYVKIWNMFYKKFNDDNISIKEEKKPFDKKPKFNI
T1 sequence 2: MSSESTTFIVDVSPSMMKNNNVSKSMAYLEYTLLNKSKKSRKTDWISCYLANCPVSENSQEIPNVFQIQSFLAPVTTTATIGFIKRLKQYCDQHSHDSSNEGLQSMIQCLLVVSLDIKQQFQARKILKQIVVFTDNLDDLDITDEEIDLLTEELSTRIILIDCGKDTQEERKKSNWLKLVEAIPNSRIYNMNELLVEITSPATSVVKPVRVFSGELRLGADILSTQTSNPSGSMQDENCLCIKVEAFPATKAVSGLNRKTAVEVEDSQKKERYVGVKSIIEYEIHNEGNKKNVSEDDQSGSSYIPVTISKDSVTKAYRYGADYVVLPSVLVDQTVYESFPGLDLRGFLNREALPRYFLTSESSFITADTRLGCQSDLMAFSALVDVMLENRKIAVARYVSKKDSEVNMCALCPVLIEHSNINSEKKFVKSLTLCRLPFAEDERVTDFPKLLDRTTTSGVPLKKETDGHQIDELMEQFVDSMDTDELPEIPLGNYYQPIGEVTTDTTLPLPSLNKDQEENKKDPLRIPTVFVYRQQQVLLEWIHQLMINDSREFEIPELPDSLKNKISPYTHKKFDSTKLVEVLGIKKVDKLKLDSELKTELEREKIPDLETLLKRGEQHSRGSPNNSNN

[2] = target: T2, yeast Ku70 2A;yeast Ku80 WT (Saccharomyces cerevisiae;Saccharomyces …, UniProt P32807;Q04437 1-602;1-629, K25A;K161A|)
T2 sequence 1: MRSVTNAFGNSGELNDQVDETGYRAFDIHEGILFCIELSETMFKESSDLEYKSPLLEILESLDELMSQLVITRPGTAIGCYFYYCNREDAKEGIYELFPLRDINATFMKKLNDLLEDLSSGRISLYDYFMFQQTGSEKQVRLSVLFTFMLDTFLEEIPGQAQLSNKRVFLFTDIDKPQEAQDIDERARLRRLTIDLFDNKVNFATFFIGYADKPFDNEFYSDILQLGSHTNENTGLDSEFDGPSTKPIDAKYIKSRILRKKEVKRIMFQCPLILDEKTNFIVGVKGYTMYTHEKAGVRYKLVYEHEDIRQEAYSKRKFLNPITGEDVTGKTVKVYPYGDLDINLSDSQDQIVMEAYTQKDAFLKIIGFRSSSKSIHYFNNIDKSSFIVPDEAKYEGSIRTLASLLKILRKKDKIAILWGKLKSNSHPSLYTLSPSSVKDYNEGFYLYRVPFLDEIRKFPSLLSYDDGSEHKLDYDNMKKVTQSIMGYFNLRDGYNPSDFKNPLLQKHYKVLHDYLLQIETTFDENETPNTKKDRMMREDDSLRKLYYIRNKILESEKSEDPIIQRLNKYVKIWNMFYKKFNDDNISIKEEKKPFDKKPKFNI
T2 sequence 2: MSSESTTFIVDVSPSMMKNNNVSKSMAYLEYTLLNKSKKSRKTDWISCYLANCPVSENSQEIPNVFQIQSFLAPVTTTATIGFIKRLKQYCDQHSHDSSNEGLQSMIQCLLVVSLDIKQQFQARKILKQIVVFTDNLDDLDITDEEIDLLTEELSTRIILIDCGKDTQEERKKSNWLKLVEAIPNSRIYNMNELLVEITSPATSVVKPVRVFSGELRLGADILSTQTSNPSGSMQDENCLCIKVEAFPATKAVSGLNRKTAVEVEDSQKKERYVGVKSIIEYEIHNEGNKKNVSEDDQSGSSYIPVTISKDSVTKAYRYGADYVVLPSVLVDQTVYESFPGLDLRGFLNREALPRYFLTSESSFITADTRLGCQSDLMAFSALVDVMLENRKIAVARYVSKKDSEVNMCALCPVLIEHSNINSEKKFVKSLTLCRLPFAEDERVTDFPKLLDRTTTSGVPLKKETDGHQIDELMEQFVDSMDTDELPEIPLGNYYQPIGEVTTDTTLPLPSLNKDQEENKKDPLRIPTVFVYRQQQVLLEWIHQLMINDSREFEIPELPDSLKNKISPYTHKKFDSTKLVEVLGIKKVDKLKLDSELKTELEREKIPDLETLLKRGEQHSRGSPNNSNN

[3] = target: T3, Xenopus Ku70 WT;Xenopus Ku80 WT (Xenopus laevis;Xenopus laevis, UniProt Q9W626;Q6DDS9 1-611;1-726, |)
T3 sequence 1: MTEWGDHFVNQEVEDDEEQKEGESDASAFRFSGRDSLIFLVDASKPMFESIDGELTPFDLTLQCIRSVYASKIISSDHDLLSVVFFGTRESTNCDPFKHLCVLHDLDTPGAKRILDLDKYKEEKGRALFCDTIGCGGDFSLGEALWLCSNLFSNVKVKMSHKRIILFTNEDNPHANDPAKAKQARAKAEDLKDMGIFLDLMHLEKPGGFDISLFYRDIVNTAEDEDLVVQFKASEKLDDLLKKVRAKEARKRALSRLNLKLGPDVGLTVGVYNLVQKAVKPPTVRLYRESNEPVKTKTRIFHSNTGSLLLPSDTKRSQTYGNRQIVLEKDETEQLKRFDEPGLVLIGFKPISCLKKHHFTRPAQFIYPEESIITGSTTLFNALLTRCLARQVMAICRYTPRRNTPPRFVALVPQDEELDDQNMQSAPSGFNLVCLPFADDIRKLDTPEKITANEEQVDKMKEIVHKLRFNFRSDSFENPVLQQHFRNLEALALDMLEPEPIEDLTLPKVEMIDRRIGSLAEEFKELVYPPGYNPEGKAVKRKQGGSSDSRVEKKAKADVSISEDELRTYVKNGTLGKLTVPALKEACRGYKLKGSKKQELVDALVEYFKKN
T3 sequence 2: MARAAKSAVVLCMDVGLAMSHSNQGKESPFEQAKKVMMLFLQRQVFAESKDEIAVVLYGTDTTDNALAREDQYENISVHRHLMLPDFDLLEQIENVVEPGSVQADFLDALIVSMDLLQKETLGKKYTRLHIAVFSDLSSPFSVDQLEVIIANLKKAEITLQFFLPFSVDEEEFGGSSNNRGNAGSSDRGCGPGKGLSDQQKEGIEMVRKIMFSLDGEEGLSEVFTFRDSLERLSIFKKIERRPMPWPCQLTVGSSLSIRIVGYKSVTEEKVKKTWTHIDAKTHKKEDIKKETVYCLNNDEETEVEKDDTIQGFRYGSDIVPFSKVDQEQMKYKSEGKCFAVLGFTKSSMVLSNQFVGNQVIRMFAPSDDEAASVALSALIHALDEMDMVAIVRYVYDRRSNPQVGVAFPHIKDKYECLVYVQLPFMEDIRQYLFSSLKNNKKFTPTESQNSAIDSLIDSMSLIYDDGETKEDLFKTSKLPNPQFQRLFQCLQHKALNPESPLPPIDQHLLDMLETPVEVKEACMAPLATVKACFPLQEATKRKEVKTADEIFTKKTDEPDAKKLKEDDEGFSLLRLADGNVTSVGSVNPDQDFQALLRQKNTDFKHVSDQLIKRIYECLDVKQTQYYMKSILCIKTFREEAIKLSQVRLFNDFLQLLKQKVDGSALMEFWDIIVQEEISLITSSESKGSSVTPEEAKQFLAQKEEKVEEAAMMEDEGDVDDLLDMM

Measured: binding result

B1: 30 bp EMSA substrate (dsDNA)
DNA 1: GUGGAAATCAAACGTAAGTAGAATCCAAAGTCT
DNA 2: TAGACTTTGGATTCTACTTACGTTTGATTTC
modifications: deoxyuridine at position 2 of strand 1 (no UDG treatment for EMSA); 5' phosphate on strand 1; 5' biotin-TEG on strand 2
binds: all assays above
